Assays:
[1] = target: SIRPα protein with hFc tag (SIRPα-hFc) (UniProt P78324); test: ELISA on coated SIRPα-hFc 1 µg/mL; control 0.2 µg/ml
[2] = target: SIRPα protein with hFc tag (SIRPα-hFc) (UniProt P78324); test: ELISA on coated SIRPα-hFc 1 µg/mL; control 1 µg/ml
[3] = target: SIRPα protein with hFc tag (SIRPα-hFc) (UniProt P78324); test: ELISA on coated SIRPα-hFc 1 µg/mL; control 0.008 µg/ml
[4] = target: SIRPα protein with hFc tag (SIRPα-hFc) (UniProt P78324); test: ELISA on coated SIRPα-hFc 1 µg/mL; control 0.0016 µg/ml
[5] = target: SIRPα protein with hFc tag (SIRPα-hFc) (UniProt P78324); test: ELISA on coated SIRPα-hFc 1 µg/mL; control 0.0001 µg/ml
[6] = target: SIRPα protein with hFc tag (SIRPα-hFc) (UniProt P78324); test: ELISA on coated SIRPα-hFc 1 µg/mL; control 0.04 µg/ml
[7] = target: SIRPα protein with hFc tag (SIRPα-hFc) (UniProt P78324); test: ELISA on coated SIRPα-hFc 1 µg/mL; control 0.00001 µg/ml
[8] = target: SIRPα protein with hFc tag (SIRPα-hFc) (UniProt P78324); test: ELISA on coated SIRPα-hFc 1 µg/mL; control 0.0003 µg/ml
[9] = target: human CD47, full length, on transfected cells (human) (UniProt Q08722); test: FACS, HEK293 clone 293F-hCD47 1B6
[10] = target: human CD47, full length, on transfected cells (human) (UniProt Q08722); test: FACS, HEK293 clone 293F-hCD47 1C8
[11] = target: human CD47, full length, on transfected cells (human) (UniProt Q08722); test: FACS, HEK293 clone 293F-hCD47 1F11
[12] = target: human CD47, full length, on transfected cells (human) (UniProt Q08722); test: FACS, HEK293 clone 293F-hCD47 1C4
[13] = target: human CD47, full length, on transfected cells (human) (UniProt Q08722); test: FACS, HEK293 clone 293F-hCD47 1F6
[14] = target: human CD47, full length, on transfected cells (human) (UniProt Q08722); test: FACS, HEK293 clone 293F-hCD47 1C2
[15] = target: human CD47, full length, on transfected cells (human) (UniProt Q08722); test: FACS, HEK293 clone 293F-hCD47 1F10
[16] = target: human CD47, full length, on transfected cells (human) (UniProt Q08722); test: FACS, HEK293 clone 293F-hCD47 2E2
[17] = target: human CD47, full length, on transfected cells (human) (UniProt Q08722); test: FACS, HEK293 clone 293F-hCD47 1E8
[18] = target: human CD47, full length, on transfected cells (human) (UniProt Q08722); test: FACS, HEK293 clone 293F-hCD47 1F8
[19] = target: human CD47, full length, on transfected cells (human) (UniProt Q08722); test: FACS, HEK293 clone 293F-hCD47 1B4
[20] = target: human CD47, full length, on transfected cells (human) (UniProt Q08722); test: FACS, HEK293 clone 293F-hCD47 1A8
[21] = target: human CD47, full length, on transfected cells (human) (UniProt Q08722); test: FACS, HEK293 clone 293F-hCD47 1D10
[22] = target: human CD47, full length, on transfected cells (human) (UniProt Q08722); test: FACS, HEK293 clone 293F-hCD47 1B8
[23] = target: human CD47, full length, on transfected cells (human) (UniProt Q08722); test: FACS, HEK293 clone 293F-hCD47 1B11
[24] = target: human CD47, full length, on transfected cells (human) (UniProt Q08722); test: FACS, HEK293 clone 293F-hCD47 1B5

Sequence of SIRPα protein with hFc tag (SIRPα-hFc) (P78324 31-370): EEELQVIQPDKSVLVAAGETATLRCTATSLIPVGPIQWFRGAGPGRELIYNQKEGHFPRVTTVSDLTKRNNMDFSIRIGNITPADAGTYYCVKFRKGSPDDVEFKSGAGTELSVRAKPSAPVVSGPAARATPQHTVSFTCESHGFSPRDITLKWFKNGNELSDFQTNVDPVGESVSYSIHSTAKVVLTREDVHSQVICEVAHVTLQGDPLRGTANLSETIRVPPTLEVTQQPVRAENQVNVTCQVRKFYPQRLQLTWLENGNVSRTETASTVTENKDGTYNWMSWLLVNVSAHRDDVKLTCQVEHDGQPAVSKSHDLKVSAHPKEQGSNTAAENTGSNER

Q: How did the OD450 nm [1] turn out when “Control protein (non-CD47 fusion protein)” was run?
A: Its OD450 nm is 0.11.

Q: What about the OD450 nm [2] of the same substance?
A: Its OD450 nm is 0.19.

Q: And the OD450 nm [3]?
A: Its OD450 nm is 0.06.

Q: And the OD450 nm [4]?
A: The OD450 nm was 0.08.

Q: And the OD450 nm [5]?
A: The OD450 nm was 0.07.

Q: What about the OD450 nm [6] of the same substance?
A: Its OD450 nm is 0.1.

Q: What about the OD450 nm [7] of the same substance?
A: The OD450 nm was 0.06.

Q: And the OD450 nm [8]?
A: Its OD450 nm is 0.07.

Q: With IgG subtype control (antibody) as the substance, how does the Mean fluorescence intensity [9] read?
A: Its Mean fluorescence intensity is 3.22.

Q: And the Positive cells (%) [9]?
A: The Positive cells (%) was 5.7%.

Q: And the Mean fluorescence intensity [10]?
A: The Mean fluorescence intensity was 2.15.

Q: And the Positive cells (%) [10]?
A: The Positive cells (%) was 0.81%.

Q: And the Mean fluorescence intensity [11]?
A: Its Mean fluorescence intensity is 3.73.

Q: And the Positive cells (%) [11]?
A: The Positive cells (%) was 3.78%.

Q: And the Mean fluorescence intensity [12]?
A: Its Mean fluorescence intensity is 3.84.

Q: And the Positive cells (%) [12]?
A: Its Positive cells (%) is 2.55%.

Q: What about the Mean fluorescence intensity [13] of the same substance?
A: Its Mean fluorescence intensity is 2.94.

Q: What about the Positive cells (%) [13] of the same substance?
A: The Positive cells (%) was 2.35%.

Q: What about the Mean fluorescence intensity [14] of the same substance?
A: The Mean fluorescence intensity was 2.47.

Q: What about the Positive cells (%) [14] of the same substance?
A: Its Positive cells (%) is 1.85%.

Q: What about the Mean fluorescence intensity [15] of the same substance?
A: Its Mean fluorescence intensity is 3.64.

Q: What about the Positive cells (%) [15] of the same substance?
A: The Positive cells (%) was 3.85%.

Q: What about the Mean fluorescence intensity [16] of the same substance?
A: The Mean fluorescence intensity was 2.79.

Q: What about the Positive cells (%) [16] of the same substance?
A: The Positive cells (%) was 2.42%.

Q: What about the Mean fluorescence intensity [17] of the same substance?
A: Its Mean fluorescence intensity is 2.79.

Q: What about the Positive cells (%) [17] of the same substance?
A: The Positive cells (%) was 1.29%.

Q: And the Mean fluorescence intensity [18]?
A: The Mean fluorescence intensity was 2.66.

Q: And the Positive cells (%) [18]?
A: The Positive cells (%) was 3.13%.

Q: And the Mean fluorescence intensity [19]?
A: Its Mean fluorescence intensity is 2.56.

Q: What about the Positive cells (%) [19] of the same substance?
A: Its Positive cells (%) is 1.6%.

Q: And the Mean fluorescence intensity [20]?
A: Its Mean fluorescence intensity is 3.2.

Q: And the Positive cells (%) [20]?
A: The Positive cells (%) was 2.19%.

Q: What about the Mean fluorescence intensity [21] of the same substance?
A: The Mean fluorescence intensity was 3.19.

Q: What about the Positive cells (%) [21] of the same substance?
A: The Positive cells (%) was 2.38%.

Q: What about the Mean fluorescence intensity [22] of the same substance?
A: The Mean fluorescence intensity was 3.11.

Q: What about the Positive cells (%) [22] of the same substance?
A: Its Positive cells (%) is 3.08%.

Q: What about the Mean fluorescence intensity [23] of the same substance?
A: The Mean fluorescence intensity was 2.87.

Q: And the Positive cells (%) [23]?
A: Its Positive cells (%) is 4.7%.

Q: What about the Mean fluorescence intensity [24] of the same substance?
A: Its Mean fluorescence intensity is 2.72.

Q: What about the Positive cells (%) [24] of the same substance?
A: The Positive cells (%) was 0.85%.

From patent US20220017615A1
